T1: ARHGEF11, O15085
T1 sequence (O15085 42-136, limits assumed, looked up): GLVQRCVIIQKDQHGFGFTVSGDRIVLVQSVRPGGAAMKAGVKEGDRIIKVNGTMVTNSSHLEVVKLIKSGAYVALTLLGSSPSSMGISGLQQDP

T2: DFNB31_2, Q9P202
T2 sequence (Q9P202 274-371, limits assumed, looked up): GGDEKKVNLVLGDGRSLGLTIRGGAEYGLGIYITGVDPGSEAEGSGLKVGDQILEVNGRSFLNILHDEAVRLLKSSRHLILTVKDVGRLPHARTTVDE

T3: GRIP1_2, Q9Y3R0
T3 sequence (Q9Y3R0 145-248, limits assumed, looked up): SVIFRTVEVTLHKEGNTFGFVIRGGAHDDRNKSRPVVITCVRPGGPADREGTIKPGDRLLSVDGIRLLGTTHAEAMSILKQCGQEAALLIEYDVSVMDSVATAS

T4: GRIP1_3, Q9Y3R0
T4 sequence (Q9Y3R0 247-346, limits assumed, looked up): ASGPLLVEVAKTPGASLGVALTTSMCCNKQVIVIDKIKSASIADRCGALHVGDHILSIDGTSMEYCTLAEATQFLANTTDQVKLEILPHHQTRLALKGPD

T5: GRIP1_5, Q9Y3R0
T5 sequence (Q9Y3R0 568-668, limits assumed, looked up): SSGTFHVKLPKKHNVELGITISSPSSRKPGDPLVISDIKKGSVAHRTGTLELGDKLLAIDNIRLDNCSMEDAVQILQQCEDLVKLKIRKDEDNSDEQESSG

T6: GRIP1_7, Q9Y3R0
T6 sequence (Q9Y3R0 999-1096, limits assumed, looked up): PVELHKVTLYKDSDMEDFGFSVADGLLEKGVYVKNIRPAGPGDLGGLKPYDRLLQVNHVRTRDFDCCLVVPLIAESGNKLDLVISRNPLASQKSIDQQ

T7: MPP6, Q9NZW5
T7 sequence (Q9NZW5 125-219, limits assumed, looked up): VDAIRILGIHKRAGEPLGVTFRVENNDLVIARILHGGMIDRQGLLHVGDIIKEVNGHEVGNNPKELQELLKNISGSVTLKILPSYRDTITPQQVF

T8: PCLO, Q9Y6V0
T8 sequence (Q9Y6V0 4491-4600, limits assumed, looked up): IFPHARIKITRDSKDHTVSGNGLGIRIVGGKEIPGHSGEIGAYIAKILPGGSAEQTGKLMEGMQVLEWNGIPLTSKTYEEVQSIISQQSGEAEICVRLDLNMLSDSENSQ

T9: PDZD2_2, O15018
T9 sequence (O15018 329-429, limits assumed, looked up): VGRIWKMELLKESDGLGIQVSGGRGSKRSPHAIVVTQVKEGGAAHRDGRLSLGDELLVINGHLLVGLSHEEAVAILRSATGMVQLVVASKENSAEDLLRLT

T10: RAPGEF6, Q8TEU7
T10 sequence (Q8TEU7 525-625, limits assumed, looked up): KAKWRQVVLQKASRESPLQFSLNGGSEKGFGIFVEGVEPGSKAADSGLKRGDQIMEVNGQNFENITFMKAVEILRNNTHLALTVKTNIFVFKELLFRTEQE


Columns and labels:
Assay in all cases: holdup assay
Design in all cases: key: below the threshold = too weak to quantify, mostly under pKd 3.1 to 4
Settings in all cases: plain residues with an end cap or a label only (N-terminal biotin on a linker: ado-ado)
AHNAK1, Q09666 = target: AHNAK1, Q09666
AHNAK1, Q09666, sequence (Q09666 4-100): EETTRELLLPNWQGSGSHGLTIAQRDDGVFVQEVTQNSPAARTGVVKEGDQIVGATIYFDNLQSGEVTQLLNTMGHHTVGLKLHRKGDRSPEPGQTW

ARHGEF11, O15085 = target: T1, ARHGEF11, O15085
DFNB31_2, Q9P202 = target: T2, DFNB31_2, Q9P202
GIPC2, Q8TF65 = target: GIPC2, Q8TF65
GIPC2, Q8TF65, sequence (Q8TF65 112-203): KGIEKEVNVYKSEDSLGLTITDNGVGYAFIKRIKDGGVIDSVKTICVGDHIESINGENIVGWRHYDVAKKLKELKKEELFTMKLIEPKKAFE

GORASP1, Q9BQQ3 = target: GORASP1, Q9BQQ3
GORASP1, Q9BQQ3, sequence (Q9BQQ3 1-208): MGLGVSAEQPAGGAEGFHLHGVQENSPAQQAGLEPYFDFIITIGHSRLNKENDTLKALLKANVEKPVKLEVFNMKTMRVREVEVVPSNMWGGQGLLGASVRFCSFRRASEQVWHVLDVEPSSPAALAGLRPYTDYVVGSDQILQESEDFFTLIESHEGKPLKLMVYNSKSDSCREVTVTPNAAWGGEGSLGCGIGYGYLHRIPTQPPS

GRID2IP_2, A4D2P6 = target: GRID2IP_2, A4D2P6
GRID2IP_2, A4D2P6, sequence (A4D2P6 272-370): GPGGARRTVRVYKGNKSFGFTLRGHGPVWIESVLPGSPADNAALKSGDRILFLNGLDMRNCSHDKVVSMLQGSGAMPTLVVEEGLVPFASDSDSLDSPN

GRIP1_2, Q9Y3R0 = target: T3, GRIP1_2, Q9Y3R0
GRIP1_3, Q9Y3R0 = target: T4, GRIP1_3, Q9Y3R0
GRIP1_5, Q9Y3R0 = target: T5, GRIP1_5, Q9Y3R0
GRIP1_7, Q9Y3R0 = target: T6, GRIP1_7, Q9Y3R0
GRIP2_6, Q9C0E4 = target: GRIP2_6, Q9C0E4
GRIP2_6, Q9C0E4, sequence (Q9C0E4 648-740): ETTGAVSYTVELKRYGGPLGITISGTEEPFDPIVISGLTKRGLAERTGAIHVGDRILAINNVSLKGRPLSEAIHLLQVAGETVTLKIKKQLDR

GRIP2_7, Q9C0E4 = target: GRIP2_7, Q9C0E4
GRIP2_7, Q9C0E4, sequence (Q9C0E4 934-1023): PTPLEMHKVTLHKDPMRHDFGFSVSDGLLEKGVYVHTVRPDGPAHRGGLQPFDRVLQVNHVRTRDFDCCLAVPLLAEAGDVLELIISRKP

Inadl_10, Q8NI35 = target: Inadl_10, Q8NI35
Inadl_10, Q8NI35, sequence (Q8NI35 1673-1763): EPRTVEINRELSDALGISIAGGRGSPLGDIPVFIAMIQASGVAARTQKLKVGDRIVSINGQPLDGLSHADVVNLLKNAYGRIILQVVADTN

Inadl_2, Q8NI35 = target: Inadl_2, Q8NI35
Inadl_2, Q8NI35, sequence (Q8NI35 238-335): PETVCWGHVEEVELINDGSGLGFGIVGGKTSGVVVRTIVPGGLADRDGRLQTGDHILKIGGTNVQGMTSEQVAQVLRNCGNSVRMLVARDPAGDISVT

Inadl_3, Q8NI35 = target: Inadl_3, Q8NI35
Inadl_3, Q8NI35, sequence (Q8NI35 359-469): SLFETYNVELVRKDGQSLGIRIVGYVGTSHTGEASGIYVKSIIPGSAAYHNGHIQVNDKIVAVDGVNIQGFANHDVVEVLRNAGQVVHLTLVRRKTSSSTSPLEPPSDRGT

Inadl_6, Q8NI35 = target: Inadl_6, Q8NI35
Inadl_6, Q8NI35, sequence (Q8NI35 1058-1167): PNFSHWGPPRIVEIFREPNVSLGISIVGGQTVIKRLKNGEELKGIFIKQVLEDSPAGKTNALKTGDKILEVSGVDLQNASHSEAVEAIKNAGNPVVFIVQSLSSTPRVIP

Inadl_8, Q8NI35 = target: Inadl_8, Q8NI35
Inadl_8, Q8NI35, sequence (Q8NI35 1425-1530): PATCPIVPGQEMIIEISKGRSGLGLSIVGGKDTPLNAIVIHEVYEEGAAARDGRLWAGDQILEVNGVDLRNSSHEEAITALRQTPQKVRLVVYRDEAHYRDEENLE

LIMK2, P53671 = target: LIMK2, P53671
LIMK2, P53671, sequence (P53671 143-248): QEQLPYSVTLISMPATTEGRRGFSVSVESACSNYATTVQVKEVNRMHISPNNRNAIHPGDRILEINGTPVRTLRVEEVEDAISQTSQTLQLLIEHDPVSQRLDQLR

MAGI1_2, Q96QZ7 = target: MAGI1_2, Q96QZ7
MAGI1_2, Q96QZ7, sequence (Q96QZ7 456-580): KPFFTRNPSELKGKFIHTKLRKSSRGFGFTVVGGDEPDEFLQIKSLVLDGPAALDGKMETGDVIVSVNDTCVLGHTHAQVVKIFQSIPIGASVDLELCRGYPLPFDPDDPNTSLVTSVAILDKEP

MAGI2_5, Q86UL8 = target: MAGI2_5, Q86UL8
MAGI2_5, Q86UL8, sequence (Q86UL8 915-1017): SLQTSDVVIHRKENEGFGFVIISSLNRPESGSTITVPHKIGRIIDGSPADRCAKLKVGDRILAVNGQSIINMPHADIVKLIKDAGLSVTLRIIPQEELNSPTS

MAST2, Q6P0Q8 = target: MAST2, Q6P0Q8
MAST2, Q6P0Q8, sequence (Q6P0Q8 1099-1202): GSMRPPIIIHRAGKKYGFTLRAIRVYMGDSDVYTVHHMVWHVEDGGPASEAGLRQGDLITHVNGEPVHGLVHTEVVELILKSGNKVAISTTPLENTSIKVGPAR

MPP6, Q9NZW5 = target: T7, MPP6, Q9NZW5
PCLO, Q9Y6V0 = target: T8, PCLO, Q9Y6V0
PDZD2_2, O15018 = target: T9, PDZD2_2, O15018
PDZRN4_1, Q6ZMN7 = target: PDZRN4_1, Q6ZMN7
PDZRN4_1, Q6ZMN7, sequence (Q6ZMN7 213-318): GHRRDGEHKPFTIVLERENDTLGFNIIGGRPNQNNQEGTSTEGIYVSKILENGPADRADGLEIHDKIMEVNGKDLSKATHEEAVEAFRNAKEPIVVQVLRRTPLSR

RAPGEF6, Q8TEU7 = target: T10, RAPGEF6, Q8TEU7
SNX27, Q96L92 = target: SNX27, Q96L92
TJP2_1, Q9UDY2 = target: TJP2_1, Q9UDY2
TJP2_1, Q9UDY2, sequence (Q9UDY2 24-128): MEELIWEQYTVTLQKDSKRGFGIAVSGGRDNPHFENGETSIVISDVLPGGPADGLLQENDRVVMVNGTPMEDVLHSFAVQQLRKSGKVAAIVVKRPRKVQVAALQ

| pKd (AHNAK1, Q09666) | pKd (ARHGEF11, O15085) | pKd (DFNB31_2, Q9P202) | pKd (GIPC2, Q8TF65) | pKd (GORASP1, Q9BQQ3) | pKd (GRID2IP_2, A4D2P6) | pKd (GRIP1_2, Q9Y3R0) | pKd (GRIP1_3, Q9Y3R0) | pKd (GRIP1_5, Q9Y3R0) | pKd (GRIP1_7, Q9Y3R0) | pKd (GRIP2_6, Q9C0E4) | pKd (GRIP2_7, Q9C0E4) | pKd (Inadl_10, Q8NI35) | pKd (Inadl_2, Q8NI35) | pKd (Inadl_3, Q8NI35) | pKd (Inadl_6, Q8NI35) | pKd (Inadl_8, Q8NI35) | pKd (LIMK2, P53671) | pKd (MAGI1_2, Q96QZ7) | pKd (MAGI2_5, Q86UL8) | Binder | other results |
| --- | --- | --- | --- | --- | --- | --- | --- | --- | --- | --- | --- | --- | --- | --- | --- | --- | --- | --- | --- | --- | --- |
| below the threshold | below the threshold | below the threshold | below the threshold | below the threshold | below the threshold | below the threshold | below the threshold | below the threshold | below the threshold | below the threshold | below the threshold | below the threshold | below the threshold | 3.92 | below the threshold | below the threshold | below the threshold | below the threshold | below the threshold | GCQGETEDVL [PTH2R, P49190] | pKd (MAST2, Q6P0Q8): 4.46; pKd (MPP6, Q9NZW5): 3.91; pKd (PCLO, Q9Y6V0): below the threshold; pKd (PDZD2_2, O15018): below the threshold; pKd (PDZRN4_1, Q6ZMN7): below the threshold; pKd (RAPGEF6, Q8TEU7): below the threshold; pKd (SNX27, Q96L92): 4.52; pKd (TJP2_1, Q9UDY2): below the threshold |
| below the threshold | 4.85 | below the threshold | below the threshold | 4.72 | 4.17 | below the threshold | below the threshold | below the threshold | below the threshold | below the threshold | below the threshold | 3.75 | 3.76 | 4.65 | 4 | 4.19 | below the threshold | 3.7 | 4.63 | PMESGICTIV [TTC24, A2A3L6] | pKd (MAST2, Q6P0Q8): 5.23; pKd (MPP6, Q9NZW5): below the threshold; pKd (PCLO, Q9Y6V0): below the threshold; pKd (PDZD2_2, O15018): 4.68; pKd (PDZRN4_1, Q6ZMN7): below the threshold; pKd (RAPGEF6, Q8TEU7): below the threshold; pKd (SNX27, Q96L92): 4.63; pKd (TJP2_1, Q9UDY2): 3.81 |
| below the threshold | below the threshold | below the threshold | below the threshold | below the threshold | below the threshold | below the threshold | below the threshold | below the threshold | below the threshold | below the threshold | below the threshold | below the threshold | below the threshold | 3.47 | below the threshold | below the threshold | below the threshold | below the threshold | below the threshold | SRPRPDDLEI [GJA1, P17302] | pKd (MAST2, Q6P0Q8): 3.75; pKd (MPP6, Q9NZW5): 3.62; pKd (PCLO, Q9Y6V0): below the threshold; pKd (PDZD2_2, O15018): below the threshold; pKd (PDZRN4_1, Q6ZMN7): below the threshold; pKd (RAPGEF6, Q8TEU7): below the threshold; pKd (SNX27, Q96L92): below the threshold; pKd (TJP2_1, Q9UDY2): below the threshold |
| below the threshold | below the threshold | below the threshold | below the threshold | below the threshold | below the threshold | below the threshold | below the threshold | below the threshold | below the threshold | below the threshold | below the threshold | below the threshold | below the threshold | below the threshold | below the threshold | below the threshold | below the threshold | below the threshold | below the threshold | RALRASESGI [ADGRE5, P48960] | pKd (MAST2, Q6P0Q8): 3.82; pKd (MPP6, Q9NZW5): 3.59; pKd (PCLO, Q9Y6V0): below the threshold; pKd (PDZD2_2, O15018): below the threshold; pKd (PDZRN4_1, Q6ZMN7): below the threshold; pKd (RAPGEF6, Q8TEU7): below the threshold; pKd (SNX27, Q96L92): below the threshold; pKd (TJP2_1, Q9UDY2): below the threshold |
| below the threshold | below the threshold | below the threshold | below the threshold | below the threshold | below the threshold | below the threshold | below the threshold | below the threshold | below the threshold | below the threshold | below the threshold | below the threshold | below the threshold | below the threshold | below the threshold | below the threshold | below the threshold | below the threshold | below the threshold | NVYGTESVKI [GRIA3, P42263] | pKd (MAST2, Q6P0Q8): 3.81; pKd (MPP6, Q9NZW5): below the threshold; pKd (PCLO, Q9Y6V0): below the threshold; pKd (PDZD2_2, O15018): below the threshold; pKd (PDZRN4_1, Q6ZMN7): below the threshold; pKd (RAPGEF6, Q8TEU7): below the threshold; pKd (SNX27, Q96L92): below the threshold; pKd (TJP2_1, Q9UDY2): below the threshold |
